Target: HA N-terminally tagged C99 (APP C-terminal fragment C99) (UniProt P05067)
Assay: proximity ligation

HA N-terminally tagged C99 (APP C-terminal fragment C99), sequence (P05067 672-770): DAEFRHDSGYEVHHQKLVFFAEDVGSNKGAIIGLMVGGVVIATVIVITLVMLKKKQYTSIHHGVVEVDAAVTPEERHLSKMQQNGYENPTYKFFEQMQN

| PLA+ spots per cell (PLA+ spots per cell) | Substance |
| --- | --- |
| 25 | Chimera of the TM of MT1-MMP and the IC of MT5-MMP |
| 25 | MT5-MMP TM/IC (transmembrane and intracellular domains, extracellular domains depleted) (from UniProt Q9Y5R2 53-645) (domain or fragment) |
| 21 | MT5-MMP TM/IC with alanine substitutions of the C-terminal PDZ-binding EWV motif (domain or fragment) |
